Measurements: IntAct's records for PubMed 21252223

B1: Swi5-dependent recombination DNA repair protein 1 homolog (Homo sapiens), Q86XK3 (parent)
chain: MAEGEKNQDFTFKMESPSDSAVVLPSTPQASANPSSPYTNSSRKQPMSATLRERLRKTRFSFNSSYNVVKRLKVESEENDQTFSEKPASSTEENCLEFQESFKHIDSEFEENTNLKNTLKNLNVCESQSLDSGSCSALQNEFVSEKLPKQRLNAEKAKLVKQVQEKEDLLRRLKLVKMYRSKNDLSQLQLLIKKWRSCSQLLLYELQSAVSEENKKLSLTQLIDHYGLDDKLLHYNRSEEEFIDV
partner: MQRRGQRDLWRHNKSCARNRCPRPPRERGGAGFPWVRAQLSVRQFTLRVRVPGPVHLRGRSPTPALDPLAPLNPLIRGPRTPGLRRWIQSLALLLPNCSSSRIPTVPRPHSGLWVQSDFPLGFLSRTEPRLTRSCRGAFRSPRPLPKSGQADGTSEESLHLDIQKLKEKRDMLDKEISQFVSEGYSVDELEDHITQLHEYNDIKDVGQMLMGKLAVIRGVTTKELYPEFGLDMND

Variants of: B1
Conditions: with swi5_human SWI5, Q1ZZU3

Row | effect of a mutation on the interaction | Variant
1 | with no effect | MAEGEKNQDFTFKMESPSDSAVVLPSTPQASANPSSPYTNSSRKQPMSATLRERLRKTRFSFNSSYNVVKRLKVESEENDQTFSEKPASSTEENCLEFQESFKHIDSEFEENTNLKNTLKNLNVCESQSLDSGSCSALQNEFVSEKLPKQRLNAEKAKLVKQVQEKEDLLRRPKLVKMYRSKNDLSQLQLLIKKWRSCSQLLLYELQSAVSEENKKLSLTQLIDHYGLDDKLLHYNRSEEEFIDV [L173P]
